Measured values published in article PMC4382702, “Artificial human Met agonists based on macrocycle scaffolds” (Nature Communications, 2015).
One block for each molecule: values may come before it. Positions of bridges follow the written chain, without caps; N, C: chain ends.

Assays:
[1] = molecular target: T1, human Met ectodomain (Homo sapiens, UniProt P08581); assay: SPR analysis of macrocycle binding to immobilized human Met ectodomain-Fc
T1 construct: human Met ectodomain-Fc chimera was immobilized; purchased Sino Biological Inc
Protocol: (§1) The binding constants of the macrocycles to the Met ectodomain were determined by SPR analysis using a Biacore T200 machine (GE Healthcare). The running buffer was HBS EP+ buffer (10 mM Hepes pH 7.4, 150 mM NaCl, 3 mM EDTA and 0.05% (v/v) SurfactantP20) containing 0.1% DMSO. To assess the interaction between human Met and the macrocycles, human Met ectodomain-Fc chimera was immobilized to a surface density of 1,200–1,600 response units (RUs) on a CM5 sensor chip using a human antibody capture kit (GE Healthcare). Macrocycle binding was tested by injecting varying concentrations of the macrocycle at a flow rate of 30 μl min^−1. Binding was quantified by a single-cycle kinetics method. To assess whether macrocycles and hHGF interacted with human, mouse and canine Met, each biotinylated macrocycle or hHGF was immobilized to a surface density of 200–500 RUs (for biotinylated macrocycles) or ~2,200 (for biotinylated hHGF) RUs on a CAP sensor chip using a Biotin CAPture Kit (GE Healthcare), following the standard protocol. Met binding was tested by injecting varying concentrations of the macrocycle at 30 μl min^−1 and quantifying by a single-cycle kinetics method. All data were fitted to the standard 1:1 binding model.

[2] = molecular target: T2, Met (Y1234/1235) (Homo sapiens, UniProt P08581); assay: Cell-based phospho-Met ELISA; conditions: EHMES-1 cells
T2 construct: endogenous in cells; host or cells: EHMES-1
Protocol: EHMES-1 cells (2 × 10^4 cells per well) were seeded in a 96-well black μClear-plate (Greiner Bio-One). After 24 h, the cells were stimulated with hHGF or dimeric macrocycle in RPMI1640 medium supplemented with 10% FBS for 10 min. The cells were washed with ice-cold PBS, fixed with 4% paraformaldehyde (PFA) in PBS for 30 min and washed three times with PBS. The cells were blocked with 5% goat serum, 0.02% Triton X-100 in PBS for 30 min and then incubated for 12 h in phospho-Met (Tyr1234/1235) (D26) XP rabbit mAb diluted 1:1,000 in 1% goat serum in PBS at 4 °C. The cells were washed three times with PBS and incubated for 1 h in HRP-conjugated anti-rabbit goat antibody diluted 1:1,000 in 1% goat serum in PBS. Following incubation, the cells were washed four times with PBS. Chemiluminescence was developed with ImmunoStar LD reagent (Wako) and measured by ARVO MX (Perkin Elmer). Relative Met phosphorylation was calculated as (Chemiluminescence unit of sample−chemiluminescence unit of mock control)/(chemiluminescence unit of 1.3 nM hHGF−chemiluminescence unit of mock control).

[3] = molecular target: T1, human Met ectodomain; assay: SPR with biotinylated macrocycle or hHGF immobilized, human Met ectodomain injected; assay type: binding; conditions: ligand immobilized on streptavidin sensor chip
Protocol: as §1
(§2) Supplementary Figure 4. SPR sensorgrams of human (blue), murine (red) and […]
(§3) Measured curves are shown in blue, red and green, and fitted curves are shown in black. […]

[4] = molecular target: T3, murine Met ectodomain (Mus musculus, UniProt P16056); assay: SPR with biotinylated macrocycle or hHGF immobilized, murine Met ectodomain injected; assay type: binding; conditions: ligand immobilized on streptavidin sensor chip
T3 construct: murine Met ectodomain-Fc chimera proteins; purchased Sino Biological Inc
Protocol: as §1, §2, §3

[5] = molecular target: T4, canine Met ectodomain (Canis lupus familiaris, UniProt Q75ZY9); assay: SPR with biotinylated macrocycle or hHGF immobilized, canine Met ectodomain injected; assay type: binding; conditions: ligand immobilized on streptavidin sensor chip
T4 construct: canine Met ectodomain were purchased from Sino Biological Inc; purchased Sino Biological Inc
Protocol: as §1, §2, §3

[6] = tested on: Met, Gab1, Akt and Erk1/2; assay: Western blotting of Met and downstream signalling proteins; assay type: cell-based, human; conditions: starved EHMES-1 cells, hHGF 2 nM or dimers 100 nM, 10 min
Protocol: (§4) EHMES-1 cells were cultured in a six-well plate until they were 80%–90% confluent. After starvation for 6 h, the cells were stimulated with 2 nM hHGF or with 100 nM aML5-PEG3, aMD4-PEG11, aMD5-PEG11 or aMsD4-C6 for 10 min. Cells were then lysed with 200 μl of lysis buffer 17 (R&D Systems) containing 1 × Complete protease inhibitor cocktail (Roche). Lysates were analysed by SDS–PAGE analysis with 10% polyacrylamide gel and standard western blotting. The respective primary antibodies and HRP-conjugated secondary antibodies were diluted 1:2,000 in Can Get Signal Solution 1 (TOYOBO) and 1:5,000 in Can Get Signal Solution 2 (TOYOBO), respectively. Chemiluminescent signals were developed with Luminata Forte HRP substrate (Merck Millipore) and observed using an ImageQuant LAS 350 machine (GE Healthcare). Relative phosphorylation efficiency was evaluated by the band intensity and statistical differences between stimulants were calculated using Student’s t-test. The phospho-RTK array was performed using Proteome Profiler Human Phospho-RTK Array Kit (R&D Systems). For stimulation of cells with FBS, cells were cultured in the presence of 10% FBS, with or without excess concentrations of hHGF (30 nM) or aML5-PEG3 (3,000 nM) for 10 min. Cell lysates of stimulated EHMES-1 cells were analysed according to the manufacturer’s instructions.

[7] = tested on: 49 representative human RTKs; assay: Phospho-RTK array; assay type: cell-based
Protocol: as §4

[8] = tested on: c-Ret; assay: Transactivation of c-Ret; assay type: cell-based, human
Protocol: EHMES-1 cells were cultured in a 12-well plate until they were 80%–90% confluent. The cells were left untreated or stimulated with hHGF or aML5-PEG3 in the presence or absence of the indicated concentrations of the specific Met kinase inhibitor, SU11274 (Calbiochem). Cells were then lysed with 100 μl of Laemmli sample buffer. Lysates were sonicated and centrifuged for 15 min at 15,000 g. Supernatants were analysed by SDS–PAGE gel electrophoresis and western blotting, using anti-phosphorylated Met (Y1234/1235) mAb or anti-phosphorylated c-Ret (Y905) antibody.

[9] = tested on: HCC827 cells; assay: Cell growth assay in gefitinib-treated HCC827 cells; assay type: cell-based, human; conditions: HCC827 cells with 1 µM gefitinib
Protocol: Cells were plated at 2,500 cells per well in 96-well plates for calcein-AM staining or 7,500 cells per well in 48-well plates for cell counting. For HUVEC and HDMEC, plates were pre-coated with gelatin (Difco Laboratories, 0.1% for 1 h at 37 °C). After 3 h, the medium was removed and replaced with medium as follows: HUVEC and HDMEC were cultured in endothelial cell basal medium supplemented with 2% (HUVEC) or 1% (HDMEC) FCS, and 90 μg ml^−1 heparin, with or without hHGF or dimeric macrocycle. RPTEC were cultured in REBM supplemented with 0.5% FBS and 2.4 mM L-alanyl-L-glutamine, with or without hHGF or dimeric macrocycle. NHEK was cultured in KBM2 supplemented with 0.4% bovine pituitary extract, 0.33 μg ml^−1 hydrocortisone, 0.39 μg ml^−1 epinephrine, 10 μg ml^−1 transferrin and 1.8 mM CaCl2, with or without hHGF or dimeric macrocycle. […] The culture media (with or without hHGF or dimeric macrocycle) were replaced every second day. After 6 days, cells were stained with 5 μg ml^−1 calcein-AM (Dojindo) at 37 °C for 15 min. Fluorescence of living cells was detected by ARVO MX. Alternatively, cells were harvested with trypsin–EDTA solution, suspended in culture medium and the cell number was determined using a Countess Automated Cell Counter (Life Technologies). Statistical differences between stimulants were calculated using Student’s t-test.

[10] = tested on: HPAEC; assay: DNA synthesis (BrdU incorporation); assay type: cell-based, human; conditions: 30 nM dimeric macrocycle or 0.25 nM hHGF, 20 h
Protocol: Normal HPAECs were maintained in MCDB 131 medium supplemented with 5% FBS and 1.2 nM of basic fibroblast growth factor. Cells were serum starved for 24 h and then stimulated with 30 nM dimeric macrocycle or 0.25 nM hHGF in the presence of 5% FBS and 10 μM BrdU for 20 h. The cells were fixed in 4% PFA in PBS for 30 min, permeabilized with 0.2% Triton X-100 in PBS for 5 min, treated with 2 M HCl for 20 min and neutralized with 0.1 M sodium tetraborate for 5 min. The treated, neutralized cells were incubated with anti-BrdU primary antibody (BD Biosciences) for 2 h and subsequently stained with a fluorescently labelled secondary antibody for 30 min. The nuclei were stained with DAPI. BrdU incorporation was analysed by Biozero fluorescence microscopy (Keyence).

[11] = tested on: RPTEC; assay: Branching morphogenesis assay in RPTEC; assay type: cell-based, human; conditions: RPTEC in collagen gels, 8 days
Protocol: RPTEC (2 × 10^4 cells) were suspended in 400 μl Cellmatrix type IA collagen solution (Nitta Gelatin) in a 48-well plate and allowed to gel for 60 min at 37 °C, according to the manufacturer’s instructions. After gelation, 500 μl REBM supplemented with 0.5% FBS and 2.4 mM L-alanyl-L-glutamine, with or without hHGF (0.42 nM, 1.3 nM) or macrocycles (30 nM, 100 nM), were added to each well. Cells were cultured for 8 days, replacing the culture medium (with or without hHGF or dimeric macrocycle) every second day. HuCCT1 (1 × 10^4 cells) were suspended in 400 μl Cellmatrix type IA collagen solution in a 48-well plate and were allowed to gel for 60 min at 37 °C. After gelation, 500 μl RPMI1640 medium supplemented with 10% FBS, with or without 0.38 nM hHGF or 20 nM dimeric macrocycle, was added to each well. Cells were cultured for 8 days, replacing the culture medium (with or without hHGF or dimeric macrocycle) every second day. TAC-2 cells (4 × 10^3 cells) were suspended in 400 μl type I collagen solution (BD Biosciences) in a 48-well plate. After gelation, 500 μl DMEM supplemented with 10% FBS, with or without hHGF or dimeric macrocycle, was added to each well. Cells were cultured for 7 days, replacing the culture medium (with or without hHGF or dimeric macrocycle) every second day.

[12] = molecular target: T5, Recombinant human Met ectodomain-Fc chimera protein (human, UniProt P08581 25-932); assay: SPR; Biacore T200; human Met ectodomain-Fc captured (1,200-1,600 RU) on a CM5 chip with a human antibody capture kit; monomeric macrocycle or linear peptide injected at 30 µl/min, single-cycle kinetics; HBS EP+ (10 mM Hepes pH 7.4, 150 mM NaCl, 3 mM EDTA, 0.05% Surfactant P20) with 0.1% DMSO; 1:1 binding model; conditions: both partners purified
T5 construct: Hepatocyte growth factor receptor (Met), human, ectodomain; Captured through its Fc with a human antibody capture kit in a1 and a2; injected as analyte in a3; also called human Met extracellular domain; source: bought: Sino Biological Inc

[13] = 10% FBS, hHGF 30 nM or aML5-PEG3 3,000 nM

T5 sequence (P08581 25-932, stated change not applied): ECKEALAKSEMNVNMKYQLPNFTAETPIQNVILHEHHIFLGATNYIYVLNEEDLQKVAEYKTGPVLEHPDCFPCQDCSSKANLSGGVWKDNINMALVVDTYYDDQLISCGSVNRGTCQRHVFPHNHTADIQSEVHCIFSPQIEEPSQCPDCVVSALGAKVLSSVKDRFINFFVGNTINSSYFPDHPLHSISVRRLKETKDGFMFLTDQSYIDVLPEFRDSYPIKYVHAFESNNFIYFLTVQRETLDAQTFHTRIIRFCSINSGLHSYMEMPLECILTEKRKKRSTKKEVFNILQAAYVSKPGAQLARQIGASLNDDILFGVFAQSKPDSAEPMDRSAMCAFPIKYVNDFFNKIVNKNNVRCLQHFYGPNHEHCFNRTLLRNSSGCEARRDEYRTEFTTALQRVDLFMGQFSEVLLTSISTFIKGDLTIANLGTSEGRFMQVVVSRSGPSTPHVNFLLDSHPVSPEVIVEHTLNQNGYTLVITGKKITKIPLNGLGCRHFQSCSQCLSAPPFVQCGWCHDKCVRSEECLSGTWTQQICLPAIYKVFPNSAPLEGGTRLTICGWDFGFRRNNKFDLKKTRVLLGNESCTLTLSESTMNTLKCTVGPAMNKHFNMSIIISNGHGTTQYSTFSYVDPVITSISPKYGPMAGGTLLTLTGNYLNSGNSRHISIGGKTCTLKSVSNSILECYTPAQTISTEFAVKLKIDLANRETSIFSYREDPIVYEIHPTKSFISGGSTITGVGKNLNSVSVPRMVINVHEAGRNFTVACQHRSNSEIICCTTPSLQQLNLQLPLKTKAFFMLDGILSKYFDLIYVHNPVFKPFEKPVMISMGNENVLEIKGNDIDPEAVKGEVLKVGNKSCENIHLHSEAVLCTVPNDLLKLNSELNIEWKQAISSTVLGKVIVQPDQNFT
T2 sequence (P08581 308-1390 limits assumed): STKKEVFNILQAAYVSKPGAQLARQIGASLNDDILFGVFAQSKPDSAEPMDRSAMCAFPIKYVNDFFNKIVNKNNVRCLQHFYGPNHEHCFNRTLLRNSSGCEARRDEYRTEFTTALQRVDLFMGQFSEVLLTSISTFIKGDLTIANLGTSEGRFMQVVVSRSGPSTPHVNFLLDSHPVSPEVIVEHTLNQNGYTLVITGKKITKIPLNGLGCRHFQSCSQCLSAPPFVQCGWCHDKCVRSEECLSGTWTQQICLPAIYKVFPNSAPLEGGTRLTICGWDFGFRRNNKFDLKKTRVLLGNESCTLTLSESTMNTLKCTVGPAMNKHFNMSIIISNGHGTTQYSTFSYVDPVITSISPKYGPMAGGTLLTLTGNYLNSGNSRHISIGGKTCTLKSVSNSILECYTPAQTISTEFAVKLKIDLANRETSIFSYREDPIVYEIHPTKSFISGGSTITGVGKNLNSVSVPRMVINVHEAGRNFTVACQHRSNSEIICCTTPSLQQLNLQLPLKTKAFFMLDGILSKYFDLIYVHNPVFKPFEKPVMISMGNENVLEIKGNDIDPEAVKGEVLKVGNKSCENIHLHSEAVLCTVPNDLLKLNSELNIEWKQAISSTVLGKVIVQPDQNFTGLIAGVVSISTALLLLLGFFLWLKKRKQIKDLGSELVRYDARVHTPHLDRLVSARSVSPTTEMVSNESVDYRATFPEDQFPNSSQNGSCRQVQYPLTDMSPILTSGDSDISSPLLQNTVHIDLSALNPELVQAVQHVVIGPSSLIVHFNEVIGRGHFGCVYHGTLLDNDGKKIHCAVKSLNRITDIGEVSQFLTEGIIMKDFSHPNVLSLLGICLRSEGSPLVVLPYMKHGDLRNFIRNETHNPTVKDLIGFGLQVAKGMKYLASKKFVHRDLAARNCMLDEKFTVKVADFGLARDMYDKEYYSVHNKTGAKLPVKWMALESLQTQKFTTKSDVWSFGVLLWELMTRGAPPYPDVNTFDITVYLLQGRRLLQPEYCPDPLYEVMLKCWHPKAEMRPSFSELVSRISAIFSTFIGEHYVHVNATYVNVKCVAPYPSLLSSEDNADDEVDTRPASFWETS
T2 sequence (P08581 25-307 limits assumed): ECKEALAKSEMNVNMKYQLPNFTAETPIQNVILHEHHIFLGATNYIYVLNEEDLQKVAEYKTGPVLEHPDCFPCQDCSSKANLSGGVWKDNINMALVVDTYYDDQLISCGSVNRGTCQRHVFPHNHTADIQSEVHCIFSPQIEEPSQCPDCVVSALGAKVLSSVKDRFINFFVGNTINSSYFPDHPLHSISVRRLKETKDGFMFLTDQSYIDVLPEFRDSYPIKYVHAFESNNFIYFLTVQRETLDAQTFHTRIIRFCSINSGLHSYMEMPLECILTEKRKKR
T1 sequence (P08581 25-932 limits assumed): as the sequence (P08581 25-932, stated change not applied) above
T3 sequence (P16056 25-931 limits assumed): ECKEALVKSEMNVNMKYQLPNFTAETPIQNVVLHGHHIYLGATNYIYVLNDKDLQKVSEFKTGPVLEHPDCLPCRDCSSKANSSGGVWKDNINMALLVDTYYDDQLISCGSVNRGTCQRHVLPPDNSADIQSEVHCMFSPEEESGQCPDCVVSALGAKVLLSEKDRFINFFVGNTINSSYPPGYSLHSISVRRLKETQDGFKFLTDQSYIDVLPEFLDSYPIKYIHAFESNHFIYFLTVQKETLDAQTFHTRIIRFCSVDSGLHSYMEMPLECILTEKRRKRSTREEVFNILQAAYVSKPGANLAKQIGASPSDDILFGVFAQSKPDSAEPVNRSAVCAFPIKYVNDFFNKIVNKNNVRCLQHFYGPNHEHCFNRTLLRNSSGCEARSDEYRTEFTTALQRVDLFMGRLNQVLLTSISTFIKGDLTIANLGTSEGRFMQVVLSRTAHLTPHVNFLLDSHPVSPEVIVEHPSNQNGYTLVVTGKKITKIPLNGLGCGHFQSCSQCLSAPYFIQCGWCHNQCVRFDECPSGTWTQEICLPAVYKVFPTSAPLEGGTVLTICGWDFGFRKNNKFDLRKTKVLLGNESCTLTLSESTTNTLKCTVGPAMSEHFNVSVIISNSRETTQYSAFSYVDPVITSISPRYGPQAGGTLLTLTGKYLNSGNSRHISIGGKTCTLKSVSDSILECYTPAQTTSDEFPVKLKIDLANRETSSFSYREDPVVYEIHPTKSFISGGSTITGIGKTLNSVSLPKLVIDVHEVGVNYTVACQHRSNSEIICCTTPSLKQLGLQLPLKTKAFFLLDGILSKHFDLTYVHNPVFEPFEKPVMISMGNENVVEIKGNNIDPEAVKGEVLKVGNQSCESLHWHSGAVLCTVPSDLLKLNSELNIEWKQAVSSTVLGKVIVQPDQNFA
T4 sequence (Q75ZY9 25-935 limits assumed): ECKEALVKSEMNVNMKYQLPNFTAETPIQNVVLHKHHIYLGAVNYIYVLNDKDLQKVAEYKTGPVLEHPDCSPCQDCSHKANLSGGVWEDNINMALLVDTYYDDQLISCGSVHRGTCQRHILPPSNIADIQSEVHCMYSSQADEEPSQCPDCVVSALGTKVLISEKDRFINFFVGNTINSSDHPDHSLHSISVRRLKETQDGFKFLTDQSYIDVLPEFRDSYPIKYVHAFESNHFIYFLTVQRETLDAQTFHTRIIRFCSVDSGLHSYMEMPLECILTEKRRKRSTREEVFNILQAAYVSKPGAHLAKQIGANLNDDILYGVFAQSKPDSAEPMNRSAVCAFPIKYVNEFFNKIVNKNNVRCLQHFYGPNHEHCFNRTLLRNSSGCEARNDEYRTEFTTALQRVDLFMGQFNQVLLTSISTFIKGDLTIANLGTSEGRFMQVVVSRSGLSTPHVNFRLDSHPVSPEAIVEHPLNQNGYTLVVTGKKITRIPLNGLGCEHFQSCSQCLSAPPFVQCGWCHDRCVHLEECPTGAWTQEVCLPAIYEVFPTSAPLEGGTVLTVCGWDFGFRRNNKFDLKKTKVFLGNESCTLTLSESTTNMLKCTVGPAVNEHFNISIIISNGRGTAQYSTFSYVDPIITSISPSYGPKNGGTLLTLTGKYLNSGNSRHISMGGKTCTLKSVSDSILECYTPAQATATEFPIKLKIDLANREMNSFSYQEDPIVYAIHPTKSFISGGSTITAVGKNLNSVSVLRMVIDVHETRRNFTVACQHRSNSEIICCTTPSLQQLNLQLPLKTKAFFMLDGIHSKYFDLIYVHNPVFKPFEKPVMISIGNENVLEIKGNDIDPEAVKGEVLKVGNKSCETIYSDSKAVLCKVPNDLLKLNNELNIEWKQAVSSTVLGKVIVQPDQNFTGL

Molecule: aML5-Lin: linear counterpart of aML5 (Ac-YISWNEFNSPNWRFITAG-NH2)
KD relative to parental peptides [1]: approximately two orders of magnitude higher

Molecule: Cc1[nH]c(/C=C2\C(=O)Nc3ccc(S(=O)(=O)N(C)c4cccc(Cl)c4)cc32)c(C)c1C(=O)N1CCN(C)CC1 [SU11274, reference compound]
effect of Met inhibitor on c-Ret phosphorylation ([8]; EHMES-1 cells stimulated with 1 nM hHGF or 100 nM aML5-PEG3): decreased c-Ret phosphorylation

B1: aML5 (peptide)
peptide: {CH2CO}-YISWNEFNSPNWRFITCG-NH2
modifications: thioether N-17
SMILES: CC[C@H](C)[C@@H]1NC(=O)[C@H](Cc2ccc(O)cc2)NC(=O)CSC[C@@H](C(=O)NCC(N)=O)NC(=O)[C@H]([C@@H](C)O)NC(=O)[C@H]([C@@H](C)CC)NC(=O)[C@H](Cc2ccccc2)NC(=O)[C@H](CCCNC(=N)N)NC(=O)[C@H](Cc2c[nH]c3ccccc23)NC(=O)[C@H](CC(N)=O)NC(=O)[C@@H]2CCCN2C(=O)[C@H](CO)NC(=O)[C@H](CC(N)=O)NC(=O)[C@H](Cc2ccccc2)NC(=O)[C@H](CCC(=O)O)NC(=O)[C@H](CC(N)=O)NC(=O)[C@H](Cc2c[nH]c3ccccc23)NC(=O)[C@H](CO)NC1=O
notes: thioether macrocycle selected by RaPID from the L-library against human Met ectodomain; also called anti-Met L-library macrocycle 5; source: synthetic peptide (Fmoc SPPS, RP-HPLC purified)
Kd [12]: 19 nM
koff [12]: 0.0081 s⁻¹
kon [12]: 430000 M⁻¹ s⁻¹

Continued, in another order:

Met Y1234/1235 phosphorylation (agonist activity) ([2]; 10 min stimulation, 10% FBS): equivalent to that of hHGF
Molecule: biotinylated hHGF: hHGF biotinylated using NH2-Reactive Biotin, 1.5 biotin per hHGF

concentration above which Met phosphorylation level decreased (bell-shaped response) [2]: above 5 nM
Molecule: hHGF: human recombinant hepatocyte growth factor, positive control
binding to human Met ectodomain [3]: binding of the immobilized hHGF to all three of the ectodomains
binding to murine Met ectodomain [4]: binding of the immobilized hHGF to all three of the ectodomains
binding to canine Met ectodomain [5]: binding of the immobilized hHGF to all three of the ectodomains
phosphorylation of Met and downstream proteins (Gab1, Akt, Erk1/2) [6]: Met was phosphorylated at the Y1234/1235 and Y1349 residues
Met phosphorylation at excess concentration [7, 13]: strongly induced Met phosphorylation
effect on RTKs phosphorylated in FBS-containing media [7, 13]: neither affected the phosphorylation level of the RTKs
RTK phosphorylation selectivity ([7]; EHMES-1 cells, 100 nM dimeric macrocycles or 2 nM hHGF, 10 min, without FBS): specifically phosphorylated Met
c-Ret phosphorylation ([8]; EHMES-1 cells, FBS-containing media): induced c-Ret phosphorylation in a dose-dependent manner
restoration of proliferation [9]: restored in a dose-dependent manner
DNA synthesis (BrdU incorporation) [10]: promoted DNA synthesis
branched tubule formation [11]: developed branched tubules

Kd [12]: 1300 nM
koff [12]: 0.017 s⁻¹
kon [12]: 13000 M⁻¹ s⁻¹
B2: aML5-Lin (peptide)
peptide: Ac-YISWNEFNSPNWRFITAG-NH2
notes: linear form of aML5, Ala in place of the ring-closing Cys; also called linear counterpart of aML5; source: synthetic peptide
